Assay results: IntAct's records for PubMed 31515488

B1: Calcium-binding and coiled-coil domain-containing protein 2 (Homo sapiens), Q13137 (parent)
chain: MEETIKDPPTSAVLLDHCHFSQVIFNSVEKFYIPGGDVTCHYTFTQHFIPRRKDWIGIFRVGWKTTREYYTFMWVTLPIDLNNKSAKQQEVQFKAYYLPKDDEYYQFCYVDEDGVVRGASIPFQFRPENEEDILVVTTQGEVEEIEQHNKELCKENQELKDSCISLQKQNSDMQAELQKKQEELETLQSINKKLELKVKEQKDYWETELLQLKEQNQKMSSENEKMGIRVDQLQAQLSTQEKEMEKLVQGDQDKTEQLEQLKKENDHLFLSLTEQRKDQKKLEQTVEQMKQNETTAMKKQQELMDENFDLSKRLSENEIICNALQRQKERLEGENDLLKRENSRLLSYMGLDFNSLPYQVPTSDEGGARQNPGLAYGNPYSGIQESSSPSPLSIKKCPICKADDICDHTLEQQQMQPLCFNCPICDKIFPATEKQIFEDHVFCHSL
partner: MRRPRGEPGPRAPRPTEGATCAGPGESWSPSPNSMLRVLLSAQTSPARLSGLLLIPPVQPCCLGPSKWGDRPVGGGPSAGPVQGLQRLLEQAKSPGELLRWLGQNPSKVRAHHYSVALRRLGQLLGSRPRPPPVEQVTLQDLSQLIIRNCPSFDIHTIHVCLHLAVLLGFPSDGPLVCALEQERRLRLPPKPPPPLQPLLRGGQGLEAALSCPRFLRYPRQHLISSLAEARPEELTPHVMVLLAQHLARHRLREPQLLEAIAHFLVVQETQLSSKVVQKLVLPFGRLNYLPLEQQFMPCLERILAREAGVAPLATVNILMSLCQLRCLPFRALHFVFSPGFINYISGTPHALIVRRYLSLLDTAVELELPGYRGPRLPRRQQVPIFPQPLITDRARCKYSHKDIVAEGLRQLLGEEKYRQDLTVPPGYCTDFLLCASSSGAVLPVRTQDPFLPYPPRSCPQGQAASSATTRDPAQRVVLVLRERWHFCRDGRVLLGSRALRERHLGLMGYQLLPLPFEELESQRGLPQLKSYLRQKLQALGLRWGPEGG
B2: E3 ubiquitin-protein ligase LNX (Homo sapiens), Q8TBB1 (parent)
chain: MNQPESANDPEPLCAVCGQAHSLEENHFYSYPEEVDDDLICHICLQALLDPLDTPCGHTYCTLCLTNFLVEKDFCPMDRKPLVLQHCKKSSILVNKLLNKLLVTCPFREHCTQVLQRCDLEHHFQTSCKGASHYGLTKDRKRRSQDGCPDGCASLTATAPSPEVSAAATISLMTDEPGLDNPAYVSSAEDGQPAISPVDSGRSNRTRARPFERSTIRSRSFKKINRALSVLRRTKSGSAVANHADQGRENSENTTAPEVFPRLYHLIPDGEITSIKINRVDPSESLSIRLVGGSETPLVHIIIQHIYRDGVIARDGRLLPGDIILKVNGMDISNVPHNYAVRLLRQPCQVLWLTVMREQKFRSRNNGQAPDAYRPRDDSFHVILNKSSPEEQLGIKLVRKVDEPGVFIFNVLDGGVAYRHGQLEENDRVLAINGHDLRYGSPESAAHLIQASERRVHLVVSRQVRQRSPDIFQEAGWNSNGSWSPGPGERSNTPKPLHPTITCHEKVVNIQKDPGESLGMTVAGGASHREWDLPIYVISVEPGGVISRDGRIKTGDILLNVDGVELTEVSRSEAVALLKRTSSSIVLKALEVKEYEPQEDCSSPAALDSNHNMAPPSDWSPSWVMWLELPRCLYNCKDIVLRRNTAGSLGFCIVGGYEEYNGNKPFFIKSIVEGTPAYNDGRIRCGDILLAVNGRSTSGMIHACLARLLKELKGRITLTIVSWPGTFL
B3: Nanos homolog 2 (Homo sapiens), P60321 (parent)
chain: MQLPPFDMWKDYFNLSQVVWALIASRGQRLETQEIEEPSPGPPLGQDQGLGAPGANGGLGTLCNFCKHNGESRHVYSSHQLKTPDGVVVCPILRHYVCPVCGATGDQAHTLKYCPLNGGQQSLYRRSGRNSAGRRVKR
B4: Regulator of G-protein signaling 20 (Homo sapiens), O76081 (parent)
chain: MPQLSQDNQECLQKHFSRPSIWTQFLPLFRAQRYNTDIHQITENEGDLRAVPDIKSFPPAQLPDSPAAPKLFGLLSSPLSSLARFFSHLLRRPPPEAPRRRLDFSPLLPALPAARLSRGHEELPGRLSLLLGAALALPGRPSGGRPLRPPHPVAKPREEDATAGQSSPMPQMGSERMEMRKRQMPAAQDTPGAAPGQPGAGSRGSNACCFCWCCCCSCSCLTVRNQEDQRPTIASHELRADLPTWEESPAPTLEEVNAWAQSFDKLMVTPAGRNAFREFLRTEFSEENMLFWMACEELKKEANKNIIEEKARIIYEDYISILSPKEVSLDSRVREVINRNMVEPSQHIFDDAQLQIYTLMHRDSYPRFMNSAVYKDLLQSLSEKSIEA
B5: Phospholipase A and acyltransferase 4 (Homo sapiens), Q9UL19 (parent)
chain: MASPHQEPKPGDLIEIFRLGYEHWALYIGDGYVIHLAPPSEYPGAGSSSVFSVLSNSAEVKRERLEDVVGGCCYRVNNSLDHEYQPRPVEVIISSAKEMVGQKMKYSIVSRNCEHFVTQLRYGKSRCKQVEKAKVEVGVATALGILVVAGCSFAIRRYQKKATA
B6: Katanin p60 ATPase-containing subunit A-like 1 (Homo sapiens), Q9BW62 (parent)
chain: MNLAEICDNAKKGREYALLGNYDSSMVYYQGVMQQIQRHCQSVRDPAIKGKWQQVRQELLEEYEQVKSIVSTLESFKIDKPPDFPVSCQDEPFRDPAVWPPPVPAEHRAPPQIRRPNREVRPLRKEMAGVGARGPVGRAHPISKSEKPSTSRDKDYRARGRDDKGRKNMQDGASDGEMPKFDGAGYDKDLVEALERDIVSRNPSIHWDDIADLEEAKKLLREAVVLPMWMPDFFKGIRRPWKGVLMVGPPGTGKTMLAKAVATECGTTFFNVSSSTLTSKYRGESEKLVRLLFEMARFYAPTTIFIDEIDSICSRRGTSDEHEASRRVKSELLIQMDGVGGALENDDPSKMVMVLAATNFPWDIDEALRRRLEKRIYIPLPTAKGRAELLKINLREVELDPDIQLEDIAEKIEGYSGADITNVCRDASLMAMRRRINGLSPEEIRALSKEELQMPVTKGDFELALKKIAKSVSAADLEKYEKWMVEFGSA
partner: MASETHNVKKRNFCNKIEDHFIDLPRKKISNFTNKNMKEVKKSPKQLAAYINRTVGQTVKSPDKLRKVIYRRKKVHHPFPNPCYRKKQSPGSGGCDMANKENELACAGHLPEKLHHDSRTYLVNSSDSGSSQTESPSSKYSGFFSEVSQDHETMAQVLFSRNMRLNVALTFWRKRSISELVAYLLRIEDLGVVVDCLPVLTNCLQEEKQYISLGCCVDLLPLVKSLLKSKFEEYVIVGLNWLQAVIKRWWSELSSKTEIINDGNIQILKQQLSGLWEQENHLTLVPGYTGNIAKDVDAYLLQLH
B7: Zinc finger protein RFP (Homo sapiens), P14373 (parent)
chain: MASGSVAECLQQETTCPVCLQYFAEPMMLDCGHNICCACLARCWGTAETNVSCPQCRETFPQRHMRPNRHLANVTQLVKQLRTERPSGPGGEMGVCEKHREPLKLYCEEDQMPICVVCDRSREHRGHSVLPLEEAVEGFKEQIQNQLDHLKRVKDLKKRRRAQGEQARAELLSLTQMEREKIVWEFEQLYHSLKEHEYRLLARLEELDLAIYNSINGAITQFSCNISHLSSLIAQLEEKQQQPTRELLQDIGDTLSRAERIRIPEPWITPPDLQEKIHIFAQKCLFLTESLKQFTEKMQSDMEKIQELREAQLYSVDVTLDPDTAYPSLILSDNLRQVRYSYLQQDLPDNPERFNLFPCVLGSPCFIAGRHYWEVEVGDKAKWTIGVCEDSVCRKGGVTSAPQNGFWAVSLWYGKEYWALTSPMTALPLRTPLQRVGIFLDYDAGEVSFYNVTERCHTFTFSHATFCGPVRPYFSLSYSGGKSAAPLIICPMSGIDGFSGHVGNHGHSMETSP
partner: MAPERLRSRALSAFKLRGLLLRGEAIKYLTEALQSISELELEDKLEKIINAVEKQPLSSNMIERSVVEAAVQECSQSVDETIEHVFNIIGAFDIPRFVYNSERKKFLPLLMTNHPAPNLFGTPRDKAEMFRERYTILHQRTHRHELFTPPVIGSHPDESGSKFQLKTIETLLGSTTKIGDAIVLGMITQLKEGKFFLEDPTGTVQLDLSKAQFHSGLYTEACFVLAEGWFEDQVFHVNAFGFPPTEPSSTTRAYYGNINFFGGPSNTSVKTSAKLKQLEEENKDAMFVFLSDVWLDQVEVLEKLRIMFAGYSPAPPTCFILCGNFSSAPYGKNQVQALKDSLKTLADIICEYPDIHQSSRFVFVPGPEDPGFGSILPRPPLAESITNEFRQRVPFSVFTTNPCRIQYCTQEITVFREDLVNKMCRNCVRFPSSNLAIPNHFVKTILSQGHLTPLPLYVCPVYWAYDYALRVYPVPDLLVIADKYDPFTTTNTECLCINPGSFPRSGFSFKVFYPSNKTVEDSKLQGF
B8: Keratin-associated protein 5-9 (Homo sapiens), P26371 (parent)
chain: MGCCGCSGGCGSSCGGCDSSCGSCGSGCRGCGPSCCAPVYCCKPVCCCVPACSCSSCGKRGCGSCGGSKGGCGSCGCSQCSCCKPCCCSSGCGSSCCQCSCCKPYCSQCSCCKPCCSSSGRGSSCCQSSCCKPCCSSSGCGSSCCQSSCCKPCCSQSRCCVPVCYQCKI
B9: Asc-type amino acid transporter 1 (Homo sapiens), Q9NS82 (parent)
chain: MAGHTQQPSGRGNPRPAPSPSPVPGTVPGASERVALKKEIGLLSACTIIIGNIIGSGIFISPKGVLEHSGSVGLALFVWVLGGGVTALGSLCYAELGVAIPKSGGDYAYVTEIFGGLAGFLLLWSAVLIMYPTSLAVISMTFSNYVLQPVFPNCIPPTTASRVLSMACLMLLTWVNSSSVRWATRIQDMFTGGKLLALSLIIGVGLLQIFQGHFEELRPSNAFAFWMTPSVGHLALAFLQGSFAFSGWNFLNYVTEEMVDARKNLPRAIFISIPLVTFVYTFTNIAYFTAMSPQELLSSNAVAVTFGEKLLGYFSWVMPVSVALSTFGGINGYLFTYSRLCFSGAREGHLPSLLAMIHVRHCTPIPALLVCCGATAVIMLVGDTYTLINYVSFINYLCYGVTILGLLLLRWRRPALHRPIKVNLLIPVAYLVFWAFLLVFSFISEPMVCGVGVIIILTGVPIFFLGVFWRSKPKCVHRLTESMTHWGQELCFVVYPQDAPEEEENGPCPPSLLPATDKPSKPQ
partner: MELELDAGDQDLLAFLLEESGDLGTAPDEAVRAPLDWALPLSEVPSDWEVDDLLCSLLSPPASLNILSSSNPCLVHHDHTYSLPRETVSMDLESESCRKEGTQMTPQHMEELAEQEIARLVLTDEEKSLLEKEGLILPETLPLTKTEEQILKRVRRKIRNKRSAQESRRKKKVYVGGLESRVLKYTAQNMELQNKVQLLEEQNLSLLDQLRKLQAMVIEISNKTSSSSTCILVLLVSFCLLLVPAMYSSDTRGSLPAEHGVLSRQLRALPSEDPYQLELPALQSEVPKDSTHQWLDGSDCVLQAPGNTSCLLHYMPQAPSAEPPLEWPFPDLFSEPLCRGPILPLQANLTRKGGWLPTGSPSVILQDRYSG

Variants of: B1
Conditions: with fastk_human FASTK

Variant | effect of a mutation on the interaction
V248A | with no effect

Variants of: B2
Conditions: with tri23_human TRIM23, P36406
Sequence of tri23_human TRIM23, P36406 (P36406 whole entry): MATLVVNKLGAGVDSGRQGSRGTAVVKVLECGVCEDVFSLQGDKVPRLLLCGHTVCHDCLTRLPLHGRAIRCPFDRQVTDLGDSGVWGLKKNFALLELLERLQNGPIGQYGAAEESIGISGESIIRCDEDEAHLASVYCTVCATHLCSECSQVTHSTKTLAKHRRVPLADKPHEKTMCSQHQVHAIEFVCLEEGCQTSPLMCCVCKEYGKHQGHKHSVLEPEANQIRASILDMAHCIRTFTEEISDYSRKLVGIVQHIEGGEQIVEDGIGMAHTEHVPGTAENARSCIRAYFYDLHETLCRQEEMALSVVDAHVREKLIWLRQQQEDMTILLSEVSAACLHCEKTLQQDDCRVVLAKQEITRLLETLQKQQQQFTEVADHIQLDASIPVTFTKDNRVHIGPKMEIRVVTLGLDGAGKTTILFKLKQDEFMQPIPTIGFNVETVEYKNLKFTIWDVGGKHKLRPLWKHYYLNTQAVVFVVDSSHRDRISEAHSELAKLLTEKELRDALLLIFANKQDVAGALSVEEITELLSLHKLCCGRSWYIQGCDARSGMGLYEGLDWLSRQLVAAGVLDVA

Variant | effect of a mutation on the interaction
R342H | with no effect

Variants of: B2
Conditions: with clk2_human CLK2, P49760
Sequence of clk2_human CLK2, P49760 (P49760 whole entry, looked up): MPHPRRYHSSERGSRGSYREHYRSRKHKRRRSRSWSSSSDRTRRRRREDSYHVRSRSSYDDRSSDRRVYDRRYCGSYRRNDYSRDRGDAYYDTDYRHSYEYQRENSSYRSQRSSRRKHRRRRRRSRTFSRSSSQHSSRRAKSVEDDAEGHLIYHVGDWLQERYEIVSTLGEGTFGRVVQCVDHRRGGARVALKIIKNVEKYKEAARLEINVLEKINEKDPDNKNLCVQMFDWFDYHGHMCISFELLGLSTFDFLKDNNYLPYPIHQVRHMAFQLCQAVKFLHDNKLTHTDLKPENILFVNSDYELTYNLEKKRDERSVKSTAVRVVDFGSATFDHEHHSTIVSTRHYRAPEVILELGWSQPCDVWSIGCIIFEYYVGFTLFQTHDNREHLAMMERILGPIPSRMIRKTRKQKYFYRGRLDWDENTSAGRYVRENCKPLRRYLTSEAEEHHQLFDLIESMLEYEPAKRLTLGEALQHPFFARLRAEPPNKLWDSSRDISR

Variant | effect of a mutation on the interaction
R342H | with no effect

Variants of: B3
Conditions: with magac_human MAGEA12, P43365
Sequence of magac_human MAGEA12, P43365 (P43365 whole entry): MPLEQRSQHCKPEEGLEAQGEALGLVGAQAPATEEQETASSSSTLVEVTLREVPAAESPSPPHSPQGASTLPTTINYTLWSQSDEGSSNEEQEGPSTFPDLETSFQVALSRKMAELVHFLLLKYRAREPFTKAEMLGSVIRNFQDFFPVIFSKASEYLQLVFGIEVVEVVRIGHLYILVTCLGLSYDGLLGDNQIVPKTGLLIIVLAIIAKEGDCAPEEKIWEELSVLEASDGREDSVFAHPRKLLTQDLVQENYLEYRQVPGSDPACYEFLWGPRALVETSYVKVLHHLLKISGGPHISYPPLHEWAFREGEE

Variant | effect of a mutation on the interaction
F13L | with no effect
R26Q | with no effect
H68Q | with no effect
R73C | with no effect

Variants of: B3
Conditions: with ccdb1_human CCNDBP1, O95273
Sequence of ccdb1_human CCNDBP1, O95273 (O95273 whole entry): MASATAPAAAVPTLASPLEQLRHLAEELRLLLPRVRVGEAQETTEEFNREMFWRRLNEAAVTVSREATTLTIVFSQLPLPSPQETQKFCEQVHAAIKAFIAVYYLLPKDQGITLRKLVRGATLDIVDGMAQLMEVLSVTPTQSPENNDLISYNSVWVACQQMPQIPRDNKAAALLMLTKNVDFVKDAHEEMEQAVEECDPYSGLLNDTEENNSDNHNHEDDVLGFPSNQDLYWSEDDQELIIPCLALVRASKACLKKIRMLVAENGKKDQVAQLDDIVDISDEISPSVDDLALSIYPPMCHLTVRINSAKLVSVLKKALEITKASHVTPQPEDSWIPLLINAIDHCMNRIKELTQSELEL

Variant | effect of a mutation on the interaction
F13L | with no effect
R26Q | with no effect
H68Q | with no effect
R73C | with no effect

Variants of: B4
Conditions: with otx1_human OTX1, P32242
Sequence of otx1_human OTX1, P32242 (P32242 whole entry): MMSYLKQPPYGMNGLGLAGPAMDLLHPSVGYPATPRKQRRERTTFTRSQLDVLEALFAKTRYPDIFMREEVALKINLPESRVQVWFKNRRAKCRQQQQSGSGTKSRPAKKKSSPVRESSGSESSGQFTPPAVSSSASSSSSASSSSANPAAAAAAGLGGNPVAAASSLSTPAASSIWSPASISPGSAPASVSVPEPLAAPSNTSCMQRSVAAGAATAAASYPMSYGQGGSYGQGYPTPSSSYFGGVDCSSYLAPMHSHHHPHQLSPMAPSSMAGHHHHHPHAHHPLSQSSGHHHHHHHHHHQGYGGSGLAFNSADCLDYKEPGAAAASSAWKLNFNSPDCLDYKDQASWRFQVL

Variant | effect of a mutation on the interaction
H347Y | with no effect

Variants of: B4
Conditions: with co8a1_human COL8A1, P27658
Sequence of co8a1_human COL8A1, P27658 (P27658 whole entry): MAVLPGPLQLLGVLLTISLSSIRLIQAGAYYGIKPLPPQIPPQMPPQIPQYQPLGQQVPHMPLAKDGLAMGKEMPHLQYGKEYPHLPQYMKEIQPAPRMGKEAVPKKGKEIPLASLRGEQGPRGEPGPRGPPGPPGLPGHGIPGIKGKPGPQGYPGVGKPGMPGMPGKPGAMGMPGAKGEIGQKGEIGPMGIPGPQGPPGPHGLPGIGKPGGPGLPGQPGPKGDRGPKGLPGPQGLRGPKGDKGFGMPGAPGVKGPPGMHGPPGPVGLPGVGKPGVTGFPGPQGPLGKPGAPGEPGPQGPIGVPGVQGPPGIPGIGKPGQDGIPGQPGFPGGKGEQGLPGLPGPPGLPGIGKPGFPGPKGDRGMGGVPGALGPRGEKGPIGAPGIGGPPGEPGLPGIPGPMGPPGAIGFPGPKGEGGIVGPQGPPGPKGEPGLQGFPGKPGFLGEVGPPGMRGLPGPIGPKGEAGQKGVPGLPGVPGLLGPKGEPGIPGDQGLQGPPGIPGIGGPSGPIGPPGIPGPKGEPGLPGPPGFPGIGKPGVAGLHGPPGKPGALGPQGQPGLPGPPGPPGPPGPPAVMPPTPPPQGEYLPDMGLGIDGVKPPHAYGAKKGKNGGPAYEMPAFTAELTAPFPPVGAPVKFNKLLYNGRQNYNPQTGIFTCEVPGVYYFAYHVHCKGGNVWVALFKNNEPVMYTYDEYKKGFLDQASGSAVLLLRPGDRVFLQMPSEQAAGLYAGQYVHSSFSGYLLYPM

Variant | effect of a mutation on the interaction
H347Y | with no effect

Variants of: B4
Conditions: with hxa1_human HOXA1, P49639
Sequence of hxa1_human HOXA1, P49639 (P49639 whole entry): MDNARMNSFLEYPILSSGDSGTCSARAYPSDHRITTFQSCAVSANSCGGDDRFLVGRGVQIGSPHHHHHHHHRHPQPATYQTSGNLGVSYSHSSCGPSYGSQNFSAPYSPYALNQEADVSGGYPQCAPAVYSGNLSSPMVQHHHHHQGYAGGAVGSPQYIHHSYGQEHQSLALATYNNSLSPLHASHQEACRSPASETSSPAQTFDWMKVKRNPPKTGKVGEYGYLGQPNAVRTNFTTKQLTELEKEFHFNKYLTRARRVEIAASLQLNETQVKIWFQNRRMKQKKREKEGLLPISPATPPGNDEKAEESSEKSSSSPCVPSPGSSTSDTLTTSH

Variant | effect of a mutation on the interaction
H347Y | with no effect

Variants of: B5
Conditions: with sgta_human SGTA

Variant | effect of a mutation on the interaction
T141M | disrupting interaction strength

Variants of: B6
Conditions: with ktbl1_human KATNBL1, Q9H079

Variant | effect of a mutation on the interaction
I142M | with no effect
V272I | with no effect
A300S | with no effect
C424S | with no effect

Variants of: B7
Conditions: with dpoe2_human POLE2, P56282

Variant | effect of a mutation on the interaction
N355S | with no effect

Variants of: B8
Conditions: with catz_human CTSZ

Variant | effect of a mutation on the interaction
Y40C | disrupting interaction strength

Variants of: B8
Conditions: with sdc3_human SDC3, O75056
Sequence of sdc3_human SDC3, O75056 (O75056 whole entry): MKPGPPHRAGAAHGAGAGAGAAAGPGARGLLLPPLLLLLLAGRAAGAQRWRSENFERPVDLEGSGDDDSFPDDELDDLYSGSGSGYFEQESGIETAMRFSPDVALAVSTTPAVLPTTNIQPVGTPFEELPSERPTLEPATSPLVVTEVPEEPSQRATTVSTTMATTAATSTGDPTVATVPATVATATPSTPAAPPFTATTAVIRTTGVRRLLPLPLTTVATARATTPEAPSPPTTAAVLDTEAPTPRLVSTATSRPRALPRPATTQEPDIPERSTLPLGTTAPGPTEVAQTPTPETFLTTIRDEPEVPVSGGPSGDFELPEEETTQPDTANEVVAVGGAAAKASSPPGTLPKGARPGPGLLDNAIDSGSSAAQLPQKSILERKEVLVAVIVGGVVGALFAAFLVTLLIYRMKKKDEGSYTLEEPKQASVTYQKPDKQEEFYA

Variant | effect of a mutation on the interaction
Y40C | with no effect

Variants of: B9
Conditions: with creb3_human CREB3, O43889

Variant | effect of a mutation on the interaction
R267H | with no effect
R413Q | with no effect
